From the supplement of paper PMC9170038

Tested on: K4 kissing-loop RNA reporter
Assay: apparent KD of K4 kissing-loop reporter; higher = weaker reporter binding
Conditions: Eterna round: R107
Method: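 RNA-MaP round R107: designed RNA switches with theophylline, tryptophan, arginine or FMN aptamers are transcribed on-chip within common flanks. They are titrated with a labelled K4 kissing-loop RNA reporter in RNA-MaP buffer (100 mM Tris pH 7.5, 80 mM KCl, 4 mM MgCl2), without ligand or with the indicated ligand. Median apparent KD per design.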

[1] = input ligand: theophylline 20 uM
[2] = input ligand: tryptophan 2.4 mM
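Note: bound reporter read as fluorescence of individual clusters on recovered sequencing chips by microscopy, with normalized cluster intensities fitted with a binding model.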

Sequence | apparent KD of K4 kissing-loop reporter (input ligand: FMN 200 uM) | apparent KD of K4 kissing-loop reporter (input ligand: arginine 13.2 mM) | apparent KD of K4 kissing-loop reporter (input ligand: none) | apparent KD of K4 kissing-loop reporter [1] | apparent KD of K4 kissing-loop reporter [2]
GGAUAGGAUAGAGGAUAUGGCUUACACAGAAAUAACUUGUUGUGUUUAUCCAUAGGGAGUGAUGUUCCAGAAGGCUGUCCUAUCG [MatMod 19 - Jieux - Exclusion - FMN B] | 743 nM | 197 nM | 210 nM | 232 nM | 161 nM
GGAUAGGAUAGAGGAUAUGGGCUAGGCAAGAAUAACUUGUCUAGCAAAUCCAUGAGGAGUGAUGUUCCAGAAGGCUAUCCUAUCG [FmnBX 1 U9+A77] | 960 nM | 160 nM | 164 nM | 145 nM | 155 nM
GGAUAGGAUAGAGGAUAUGGUAGUGAUGUUACCAAACUGGUUAAACAUGUCAGAAAACUGGCAUGACCAGAAGGCUGUCCUAUCG [FmnBX 27 U9] | 102 nM | 63.4 nM | 71 nM | 70.5 nM | 69.8 nM
GGAUCCACCAGUGAUGUUGGAGAAAACUUCAAGGAUAUGACGAAAGUCAGAAGGUGAUAGACUGGACAAAGUCCGGUCGGAUCCA [FmnA 19 U29+A57] | 552 nM | 729 nM | 454 nM | 527 nM | 462 nM
GGAUGGUAGGCGGCCGCCACUAAAUGUGAACACAUACAAGCCAGUGAUGUUGGUAUGAUGGACAAUAGGACCGGGCCUAGAUAGA [Exclusion - Tryptophan B (Freestyle 7)] | 595 nM | 448 nM | 555 nM | 495 nM | 542 nM
GGCACUUUUGGUAGAAACCAUCUACCUCUAUAGGAUAUGCCGAAAGGCAGAAGGAUAGACCUACAGAGUGAUGUUCUGCGUGCCU | 692 nM | 406 nM | 719 nM | 460 nM | 503 nM
GGCAUGGUGGCAGGAUAUCCUAAUAGAGUGAUGUUCUAGCCCUCGUAGGCGAAAGCCUACGAGGGCGGAGAAGGGCCACCAUGCC | 263 nM | 384 nM | 697 nM | 835 nM | 431 nM
GGGAGUAGUGCGGCCGCCACUGUGAAAGUAGAAGAAUAUAGUGAUGUUAUAUAGGAACAAAAGAAUAGGACCGGGCAUUAGAUUU [SSTRyptB.X] | 311 nM | 260 nM | 304 nM | 299 nM | 198 nM
GGGAGUAGUGCGGCCGCCACUGUGAGGGAAGAAGAAUAUAGUGAUGUUAUAUAGGAAGGGAAGAAUAGGACCGGGCAUUAGAUUU [SSTRyptB.aB] | 225 nM | 208 nM | 245 nM | 230 nM | 198 nM
GGGCCUGGGCCCGUAAGGGCCUGGGCCCGUUAGGAUAUGACGUGAUUCAGAAGGGAUGGGUGGAGUGAUGUUCCACCCGAGAGGG [#2 Same State - FMN A Attempt #24 (HarryS)] | 111 nM | 97.7 nM | 117 nM | 88.5 nM | 96.7 nM
GGGUCAUGGAACGGAUAAGUGAUGUUUACCCGAGGACCGGUACGGCCGCCACUCGGUCGUUAUUUCCGACGUGCUGGUAAGACUA [theeternabot_exclusion_KL_Trp_A_10] | 336 nM | 253 nM | 378 nM | 348 nM | 475 nM
GGGUUUGCCGGAAGGAGCGCACUAUGGAGUGAUGUUCCAUGACCGCACAGCUUGCGGUCAGUGCAGGUAGGUCGCCGGUAGCGUU [Maedzaus] | 205 nM | 203 nM | 239 nM | 271 nM | 179 nM
GGUAGCAUGGCGGCCGCCACUGUCUACUGAGGCGGAGUGAUGUUCCGGUUUAAAUAACAAGUUCACAGGACCGGGCCAUGCUACC | 382 nM | 400 nM | 462 nM | 471 nM | 141 nM
GGUAGCAUGGCGGCCGCCACUUUUACUGGAUCGGAAACGAUCCAGUAUUGUGUAGUGAUGUUACAAAGGACCGGGCCAUGCUACC | 201 nM | 188 nM | 180 nM | 189 nM | 167 nM
GGUUCCUCAGUGAUGUUGAGGUGACCUCGGCAGGAUAUAGGCAUUACUAGAAGGGCCAAAAGAAUCCUGUGCAGCAACACAGGGA [Usrasoza] | 152 nM | 238 nM | 298 nM | 257 nM | 262 nM
GGUUUAUAGGAGGAUACCAGUACGGAUAAAGUACAUUAAUAGUAGAGUGAUGUUCUAAAGUACCCUUGGCAGCUUAGAUUAAGUU [ExTheophylB.I] | 87.1 nM | 177 nM | 133 nM | 209 nM | 74 nM
GUACGCUCUCGAGUGAUGUUCGGUAAUAGAGAGGAUAUCGCUUUUGCGAGAAGGCUCUGAAUGAGGAAACUCGUUCUGAGUGUAC [FMN A 19] | 436 nM | 362 nM | 389 nM | 358 nM | 419 nM
GUAUACAUAGAUCACCUUGUAGUGAUGUUGCGAGGACCGGUACGGCCGCCACUCGAAGUACGAAAGUACAAAGAUCUAUGUAUAC [Exclusion Trypto A - 1] | 251 nM | 131 nM | 258 nM | 136 nM | 45.9 nM
GUAUCGCUAGGAGGAUAUGUCGUUUUUCAUAGCAAUGGCUGUGCGGAGUGAUGUUCCGAUUUACCGGCAGAAGGCCUAGUGAUAC [FMN B 28] | 118 nM | 104 nM | 92.9 nM | 106 nM | 89.8 nM
GUAUGUGGAAACACGUACUUGUAUCCUAGGCAGGAUAUGCGGAAACGCAGAAGGGCCACCGGCGAGUUUAUCCAGUGAUGUUGGA [Ex FMN A 9] | 245 nM | 257 nM | 291 nM | 251 nM | 237 nM
GUAUGUUCGAAAGAACGUACAUCUUCGGAAGGAGCGCGUGAAAACGCAGGUAGGUCGCCGAAGUUAUUAGGUAGUGAUGUUACCU [Arginine A K4 8] | 128 nM | 99.1 nM | 101 nM | 109 nM | 114 nM
GUAUUUCCCUCGGAUACCAGUCAUCAUGAGUAUAGUGAUGUUGUACGUCCGGAUGAUUUUGACCCUUGGCAGCCGUCUCCUUGAA [theeternabot_sameState_KL_Theo_B_49] | 515 nM | 371 nM | 593 nM | 497 nM | 540 nM

Sequence | apparent KD of K4 kissing-loop reporter (input ligand: FMN 200 uM) | apparent KD of K4 kissing-loop reporter (input ligand: arginine 13.2 mM) | apparent KD of K4 kissing-loop reporter (input ligand: none) | apparent KD of K4 kissing-loop reporter [1] | apparent KD of K4 kissing-loop reporter [2]
GUCAAGGGUGCGGCCGCCACUUCUAGUGAUGUUAGUUUGUCUUCGUUCAACCGGCGUCUGCACGCAAGGACCGGGCACCAGCGAC [theeternabot_exclusion_KL_Trp_B_10] | 552 nM | 350 nM | 567 nM | 636 nM | 360 nM
GUCCCAGUGAUGUUGGUAGGCGAGCGGGAUACCAGCGAAGACUCACGCCCUUGGCAGCCCACAUAUCCCGCGUAGGGAUUAGCUC [Same State - Theophylline A (Freestyle 21)] | 364 nM | 315 nM | 431 nM | 415 nM | 347 nM
GUGAGGAUCAGAAGGAGCGUCGGCAAUCCAGUGAUGUUGGGUGUUGGUUAUAUUUAACGACGACAGGUAGGUCGCUGAUUUUCAA [Same State Arginie B GF 21] | 163 nM | 107 nM | 163 nM | 190 nM | 140 nM
GUGCAGUGAUGUUGCACGAGGAAAGACGAUACCAGCCGUAAAUAAGGCCCUUGGCAGCGUAAGCUAGCAUAAAGUAUGCUAGUCC [Onarve] | 108 nM | 102 nM | 103 nM | 77.1 nM | 85.2 nM
GUGCAGUGAUGUUGCACGAGGAAAGACGAUACCAGCCGUAAAUAUGGCCCUUGGCAGCGUGGGCUAGCACAAAAUGUGCUAGUCU [Zareatza] | 127 nM | 109 nM | 116 nM | 107 nM | 98.2 nM
GUGCGGCUAGUGAUGUUGGUUGCGUGGGAAGGAGCGCAGAAACAUGCAGGUAGGUCGCCCACAUCUCUGAUAAAAGAUUAAUUCA [Riares] | 304 nM | 254 nM | 235 nM | 338 nM | 239 nM
GUGGUUUACGUAGGAUAUCGGUGAUGAGUAAAUGGAGUGAUGUUCCGAGAUUGAAUAUGAGAUGAGCGAGAAGGGCGGUUUAUGC [FMN B Same State; Euporia Solution 3] | 60.8 nM | 77.3 nM | 63.1 nM | 89.7 nM | 54.7 nM
GUGUGUGAAAACACGCACUUAUAUCCUAGGCAGGAUAUGCGGAAACGCAGAAGGGCCACCGGCGAGAAAAUCCAGUGAUGUUGGA [Ex FMN A 6] | 281 nM | 245 nM | 273 nM | 192 nM | 251 nM
GUUACGCAUGGAAGGAGCGCACUCCGAUUGGGCGACACAGUGAUGUUGUGGUUCGUUCGAAUGCAGGUAGGUCGCCAUGUGUAAC [Ex Arginine B K4 20] | 181 nM | 153 nM | 140 nM | 153 nM | 142 nM
GUUACGCAUGGAAGGAGCGCAGGCUCAACAAAUAGCUCAGUGAUGUUGAGCAAAUUAAAACUGCAGGUAGGUCGCCAUGUGUAAC [Ex Arginine B K4 22] | 399 nM | 399 nM | 508 nM | 371 nM | 422 nM
GUUCUGAUGGAAACAUCGGAACAUACUGAUACCAGUAUCGAUAGAUACCCUUGGCAGCAGAAUCAGUAAUAACGAGUGAUGUUCG [Ex Theophylline A K4 2] | 275 nM | 247 nM | 293 nM | 273 nM | 257 nM
UAACAGUCUACGGCCGCCACUGACAAUCGGCAAGCAACAUGUGGGUGCGUAGUGAUGUUACAUAUCAGGACCGGGUAAGACAAAU [theeternabot_sameState_KL_Trp_B_32] | 327 nM | 392 nM | 235 nM | 345 nM | 438 nM
UAACGGCAACAAGGAUAUCCCAGUGAUGUUGGGAGAUAUUGACUAAGGAGACAUGAUAGGCAUAAUGGAGAAGGUGUGUUGGGAG [theeternabot_exclusion_KL_FMN_B_19] | 159 nM | 116 nM | 142 nM | 131 nM | 138 nM
UAACUGCAGUGAUGUUGCAGAUGUCCUGACUAGGAUAUCAGGAAACUGAGAAGGAGUCCCUUCUACUGCAACAAGAAGGAGGACA [[K1]-[K2]-[F1]'-[F1]-[F2]-[F2]'-[K]'-[F]''_Design2] | 396 nM | 347 nM | 436 nM | 391 nM | 408 nM
UAACUUGCAGUGAUGUUGCAAGAACUGGAUACCAGCAUGGAAACAUGCCCUUGGCAGCCAGAAGGUAUCCUCUUGCAUAGAUACU [Design3] | 216 nM | 178 nM | 195 nM | 220 nM | 192 nM
UAAGAAUAAGUAGCAGUGAUGUUGCUACUACGAGGACCGGUACGGCCGCCACUCGAGCCGUACAAAGUAGCAACUAGUACGAAUA [(H1)-(H2)-(Trp1)-(Trp2)-(T)'-(H)'-(T)''] | 231 nM | 194 nM | 223 nM | 246 nM | 365 nM
UAAGAAUAAGUAGCAGUGAUGUUGCUACUGCGAGGACCGGUACGGCCGCCACUCGAGUCCUCGAAACAUCACUGAACGAGGAAUA [whbob_SS_Tryp_A_m11] | 298 nM | 190 nM | 193 nM | 319 nM | 270 nM
UAAGAGGACCACUACAAGAGUCCUCGAAUACGAGGACCGGUACGGCCGCCACUCGAUAACUUGUAGUGAUGUUGCAAGUAAGAAU [BrourdMod 2 - Jieux - Same State Tryptophan A] | 80.4 nM | 85.6 nM | 85.3 nM | 97.4 nM | 46 nM
UAAGAUAUGAGGGAUACCAGCCAUAAGGAAAGUGUGAUGAGUGAUGUUCUGACAAGCCAAGGCCCUUGGCAGCUUUAAUAGCAUC [whbob_SS_Theo_B_th76] | 271 nM | 80.8 nM | 164 nM | 218 nM | 203 nM
UAAUCCUAAUGAUAAUAAUCAAGUGGUGGACGAGGACCGGUACGGCCGCCACUCGAAAAUGCAGUGAUGUUGUAAUACGGAUAAU [Exclusion - Tryptophan A (Freestyle 3)] | 288 nM | 460 nM | 372 nM | 541 nM | 247 nM
UACAUCGAGCAGAGUGAUGUUUUGUGCGAUACCAGCAAGUGCAAGUGCCCUUGGCAGCGCAAGCGGUUGUAUGUAGGACCGGACG [theeternabot_exclusion_KL_Theo_A_21] | 433 nM | 647 nM | 657 nM | 964 nM | 432 nM
